These are literature values, as cited in paper PMC6478893.

Broadly, the pKa is the pH at which an ionisable group is half protonated.

The series deals with Glu73 (UniProt position 86, GLTFTEKWNTD).

As for “Voltage-dependent anion channel 1 (VDAC1) (Mus musculus (inferred from the title of ref. 51, 'mVDAC1'; the article text says only 'VDAC1'))”, the pKa is roughly 7.4.
